{
  "source": "paper PMC11551393",
  "about": "(Proceedings of the National Academy of Sciences of the …, 2024)",
  "binders": {"B1": {"name": "Tdk1(211-357) (in the fused complex for cryo-EM) (domain or fragment, S. pombe, UniProt O74876 211-357, looked up)", "chain": "MDEWRKSTDEWRKSTDERLENLLNIVREILDVQRDMRNDLSNLTRKVDRMDMRLSRNNNMIMRSFAQPITEVPFFNGDIPDPNLPRITRIEDIDSLSEENCTRYLKGYGVSYDENDQSLWKRQLAKAVGLTAAYDESYTFSPFSSSE"}},
  "key": {"[1]": {"molecular_target": "T1, Bdf1(372-554) (in the fused complex for cryo-EM) (S. pombe, UniProt Q9Y7N0 372-554)", "T1 sequence (looked up)": "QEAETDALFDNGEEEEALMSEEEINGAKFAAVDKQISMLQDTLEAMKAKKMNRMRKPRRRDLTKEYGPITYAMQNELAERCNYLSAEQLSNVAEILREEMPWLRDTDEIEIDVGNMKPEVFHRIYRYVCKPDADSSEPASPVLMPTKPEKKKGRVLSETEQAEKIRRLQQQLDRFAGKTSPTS", "experiment": "cryo-EM structure"}, "cryo-EM structure": {"molecular_target": "the molecule itself", "experiment": "cryo-EM structure"}},
  "data": [
    {"binder": "B1", "values": [
      {"measurement": "binding result", "setting": "[1]", "result": "binds"},
      {"measurement": "stoichiometry N", "setting": "cryo-EM structure", "result": 6}
    ]}
  ]
}
